We go through one substance from PMC7727368.

For the assay, the target named is Fasciola hepatica profilin (FhProfilin), recombinant (Fasciola hepatica). Kind of assay: SEC; Superdex S75 16/60 in TBS (10 mM Tris-HCl, 300 mM NaCl, pH 8.0), 1 ml/min; elution volume compared with proteins of known molecular weight. (In general: In gel filtration, larger molecules generally elute earlier.)

Regarding “Fasciola hepatica profilin (FhProfilin), recombinant (natural protein)”, the stoichiometry N – broadly, the number of molecules, sites or subunits per partner or assembly – amounted to 2.
